Columns and labels:
[1] = biological target: hTfR (human transferrin receptor, source and construct not stated) (human, UniProt P02786 89-760, limits assumed); assay: ELISA, biotinylated antibody on hTfR captured by plate-coated HFE (HFE+TfR); fit: specific binding with Hill slope
[2] = biological target: T1, TfR2 (transferrin receptor 2) (UniProt Q9UP52 105-801, limits assumed); assay: A450 plate assay on TfR2 (method not described in the text)
T1 sequence (looked up): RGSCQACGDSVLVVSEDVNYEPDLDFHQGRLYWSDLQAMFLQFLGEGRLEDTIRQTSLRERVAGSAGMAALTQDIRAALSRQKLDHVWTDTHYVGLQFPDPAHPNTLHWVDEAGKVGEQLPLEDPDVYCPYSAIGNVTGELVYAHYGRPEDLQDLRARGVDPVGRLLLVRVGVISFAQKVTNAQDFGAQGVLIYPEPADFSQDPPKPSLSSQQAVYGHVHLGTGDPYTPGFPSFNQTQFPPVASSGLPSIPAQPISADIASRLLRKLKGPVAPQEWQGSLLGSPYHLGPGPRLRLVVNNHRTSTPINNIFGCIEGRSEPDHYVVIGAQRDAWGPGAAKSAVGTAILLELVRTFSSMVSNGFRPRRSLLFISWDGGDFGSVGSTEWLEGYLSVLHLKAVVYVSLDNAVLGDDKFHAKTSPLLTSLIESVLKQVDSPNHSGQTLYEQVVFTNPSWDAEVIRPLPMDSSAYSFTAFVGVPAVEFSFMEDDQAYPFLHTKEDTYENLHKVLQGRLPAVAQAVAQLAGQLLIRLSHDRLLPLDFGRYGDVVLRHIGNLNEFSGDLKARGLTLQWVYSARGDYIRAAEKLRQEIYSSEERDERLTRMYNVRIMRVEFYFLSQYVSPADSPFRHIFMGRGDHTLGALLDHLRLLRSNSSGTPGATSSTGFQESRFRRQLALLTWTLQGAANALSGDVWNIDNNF

Sequence of hTfR (human transferrin receptor, source and construct not stated) (P02786 89-760 limits assumed): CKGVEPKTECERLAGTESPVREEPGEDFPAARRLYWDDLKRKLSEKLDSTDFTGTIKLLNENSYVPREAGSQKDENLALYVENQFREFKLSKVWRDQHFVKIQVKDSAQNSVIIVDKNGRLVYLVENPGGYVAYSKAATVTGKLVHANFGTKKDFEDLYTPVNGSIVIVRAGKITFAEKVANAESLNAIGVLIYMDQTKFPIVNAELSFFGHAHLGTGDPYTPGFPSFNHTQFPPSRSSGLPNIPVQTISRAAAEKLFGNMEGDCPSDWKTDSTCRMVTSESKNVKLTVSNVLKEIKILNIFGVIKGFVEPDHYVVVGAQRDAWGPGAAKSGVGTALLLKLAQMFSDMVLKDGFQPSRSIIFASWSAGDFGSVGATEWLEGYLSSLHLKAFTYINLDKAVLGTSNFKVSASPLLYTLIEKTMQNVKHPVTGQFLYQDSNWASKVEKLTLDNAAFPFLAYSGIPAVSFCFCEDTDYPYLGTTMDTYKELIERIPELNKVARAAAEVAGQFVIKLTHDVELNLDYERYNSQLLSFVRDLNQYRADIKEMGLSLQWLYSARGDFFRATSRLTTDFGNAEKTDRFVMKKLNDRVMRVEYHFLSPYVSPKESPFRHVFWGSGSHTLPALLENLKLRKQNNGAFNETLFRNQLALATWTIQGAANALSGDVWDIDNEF

B1: 13E4_WT (parent chimeric anti-TfR antibody) (antibody, V domains shown)
VH: QVQLQQPGAELVKPGASVKLSCKASGYTFTNYWMHWVKQRPGQGLEWIGEINPINGRSNYGERFKTKATLTVDKSSSTAYMQLSSLTSEDSAVYYCARGTRAMHYWGQGTSVTVSS
VL: DIQMTQSPASLSVSVGETVTITCRTSENIYNNLAWYQQKQGKSPQLLVYAATNLADGVPSRFSGSGSGTQYSLKINSLQSEDFGNYYCQHFWGTPLTFGAGTKLELK
notes: also called 13E4_WT 1st; 13E4_WT 2nd
[1]
  Bmax: 2.88 A450
  Kd: 0.286 nM
  h: 1.54
[2]
  binding result: no binding (tested: 1000 nM)

From patent US20200325237A1 (AVIDITY BIOSCIENCES, published 2020)
